Data as given in patent publication US9481870B2, “Nucleic acid encoding a polypeptide having aminotransferase activity, vectors and host cells comprising the nucleic acid” (KANEKA CORPORATION, priority 2010, dated 2016).

Key:
[1] = Activity of purified TPM for 1-benzyl-3-pyrrolidinone and optical purity of product; format: biochemical; conditions: 2 hours
Experimental: The above properties can be determined by the following method. Specifically, a purified polypeptide is added to a substrate solution having the following composition so that it has a final concentration ranging from 0.1 mg/mL to 1 mg/mL for reaction at 30° C. Furthermore, the reaction is continued until 0.6 mM or more 1-benzyl-3-aminopyrrolidine (as determined by the following quantitative analysis) is generated. After the completion of the reaction, the optical purity of the 1-benzyl-3-aminopyrrolidine generated in the reaction solution is analyzed by HPLC under the following conditions. […]
[High Performance Liquid Chromatography (HPLC) Analysis Conditions] • <Quantitative A> • Column: Finepak SIL C18-T (JASCO Corporation) • Eluent: distilled water 1260 mL/acetonitrile 740 mL/KH2 PO4 10 g/SDS 2.88 g (pH3.6) • Flow rate: 1 mL/minute • Detection: 254 nm • Column temperature: 40° C. […]
A reaction solution was treated with an appropriate amount of sodium carbonate so that it became basic, derivatized with dinitrobenzoyl chloride, and then analyzed under the following conditions. • Column: Chiral pak IA (Daicel Corporation) • Eluent: hexane/ethanol/diethylamine/acetonitrile=800/200/1/5 (volume ratio) • Flow rate: 0.8 mL/minute • Detection: 254 nm

[2] = Thermal stability (residual activity after 30 minutes heating); format: physicochemical; conditions: for Residual activity: pH7.5, before heat treatment = 100
Experimental: The thermal stability of the polypeptide is determined as follows.
The purified TPM was reacted for 30 minutes in 0.1 M potassium phosphate buffer (pH7.5) containing 0.5 mM pyridoxal phosphate at 30° C., 40° C., 50° C., 60° C., 70° C., and 80° C., and then activity assay was performed in a similar manner. As a result, 90% or more of the activity before heat treatment remained after treatment at 30° C. to 60° C.

[3] = Transamination activity assay (activity assay A), activity for (S)-1-phenethylamine; format: biochemical; conditions: (S)-1-phenethylamine 25 mM, sodium pyruvate 25 mM, pH 8.0, 30° C., 5 minutes
Experimental: The above transamination activity can be determined by the following method. Specifically, first, a purified polypeptide is added to a substrate solution having the following composition so that the total volume is 1 mL. After 5 minutes of reaction at 30° C., 0.05 mL of 6N hydrochloric acid is added to stop the reaction. The reaction solution is then analyzed by HPLC under the following conditions and then the quantity of the thus generated acetophenone is determined (hereinafter, referred to as “activity assay A”).
(§1) The transamination activity of purified TPM was examined under the following activity assay conditions. Specifically, purified TPM was added to a substrate solution with the composition given below to a total amount of 1 mL. After 5 minutes of reaction at 30° C., 0.05 mL of 6N hydrochloric acid was added to stop the reaction. HPLC analysis was conducted under the following conditions.
[High Performance Liquid Chromatography (HPLC) Analysis Conditions] • Column: Wakosil-II 5C18 RS (Wako Pure Chemical Industries, Ltd.) • Eluent: 10 mM potassium phosphate buffer (pH5.3): acetonitrile=3:2 • Flow rate: 1 mL/minute • Detection: 241 nm • (1) Activity for (S)-1-phenethylamine: […]

[4] = Resistance to water-soluble organic solvent (residual activity); format: physicochemical; conditions: 2 hours, 30° C.
Experimental: Resistance to a water-soluble organic solvent can be determined by the following method. Specifically, first, 800 uL of each water-soluble organic solvent is added to 200 uL of a 0.1 M aqueous potassium phosphate solution (pH7.5) supplemented with 0.5 mM PLP containing a purified polypeptide, so that the solvent is brought into contact with the solution at 30° C. for 2 hours. Subsequently, the resultant is diluted with a 0.1 M aqueous potassium phosphate solution supplemented with 0.5 mM PLP. Activity in the dilute solution is compared with the same in a purified polypeptide solution before addition of the solvent using the above activity assay A.
• (5) Resistance to water-soluble organic solvent: 800 μL of 1-propanol, 2-propanol, or acetone was added to 200 μL of 0.1 M potassium phosphate buffer (pH7.5) containing 0.5 mM pyridoxal phosphate to which purified TPM had been added, followed by 2 hours of treatment at 30° C. After treatment, 0.1 M potassium phosphate buffer (pH7.5) containing 0.5 mM pyridoxal phosphate was diluted 20-fold, and then the activity of the diluted solution was determined under conditions similar to those above.
The resistance of commercially available Vibrio fluvialis-derived ω-Transaminase VF (Julich-Chemicals) to a water-soluble organic solvent was examined by a method similar to that for resistance to a water-soluble organic solvent in Example 9 (5).

[5] = Optimum pH of transamination activity; format: biochemical
Experimental: The optimum pH for transamination is determined by the above activity assay A using combinations of the following buffers and pHs. […] When activity levels are different depending on buffer types, the activity level higher than the other is employed even if the pHs are the same. • pH4.0, 4.5, 5.0, 5.5: 0.1 M sodium acetate buffer • pH6.0, 6.5, 7.0, 7.5, 8.0: 0.1 M potassium phosphate buffer • pH7.5, 8.0, 8.5, 9.0: 0.1M Tris-hydrochloric acid buffer (Optimum Temperature)
as §1
Transamination activity was determined in a manner similar to the above at pHs ranging from 4.0 to 9.0 and then the optimum pH of TPM was examined.
The following buffers were used according to pH for determination.
[Buffer] • pH4.0, 4.5, 5.0, or 5.5: 0.1 M sodium acetate buffer • pH6.0, 6.5, 7.0, 7.5, or 8.0: 0.1 M potassium phosphate buffer • pH7.5, 8.0, 8.5, or 9.0: 0.1 M tris-hydrochloric acid buffer • (3) Optimum Temperature: […]

B1: TPM: purified aminotransferase polypeptide from Pseudomonas sp. MV37, about 50,000 molecular weight, amino acid sequence SEQ ID NO: 1 (protein, listed as Pseudomonas sp.)
chain: MNHLEKMLELDRNHLIHPHLPKSEFSRTIFARGKGCKLWDTEGREYLDATGGLWLAQIGHGREEIAEVAARQMKQLEYFTCFWDFSNERAIELAEKLARLAPGDLEMSFFTSGGSEGDDAAIKTARYYHSQRGEPKRTWILSRNNAYHGLAYGGGTATGFPELRDGMGPGLPHVAYLTQPNAYRHYYFDGQNPTDFCVSELEKMIASIGAENIAAMIAEPIMGVGGMVPPPVDYWPRMSQVLKKNGILLIFDEVVSAFGRSGHWFAAEKYGVIPDIMVTAKGISSGYIPLGAVIMSRDVADTVREGHGYPLGYTYSGHPVACAVALENLRILEDEDLINRSNHMGTYIAEQLTALRDNPCVGEVRQAGMGIGIELVTDKESRQPLPDAALVIPDIIREETGVIVRISNATNLCMSPPLTMSREEADRAVEAVCSVLSRVKPDGKV
With B1 the conversion rate ([1]; (S)-1-phenethylamine 85.6 mM, 1-benzyl-3-pyrrolidinone 57.1 mM, pH 7.0, 30° C.) was 90%, the optical purity ([1]; generated (S)-1-benzyl-3-aminopyrrolidine, 30° C.) was 98.0 % e.e and the “activity remaining relative to before heat treatment” value ([2]; after treatment at 30° C. to 60° C.) was no less than 90%. For the same molecule, the Residual activity ([2]; treatment 30° C.) was 108, the Residual activity ([2]; treatment 40° C.) was 115 and the Residual activity ([2]; treatment 50° C.) was 120. For the same molecule, the Residual activity ([2]; treatment 60° C.) was 100, the Residual activity ([2]; treatment 70° C.) was 12 and the “Transamination activity for (S)-1-phenethylamine” value [3] was 11.8 U/mg. The “Residual activity rate (%)” value ([4]; 1-Propanol 80% v/v) was 97%, the “Residual activity rate (%)” value ([4]; 2-Propanol 80% v/v) was 100% and the “stability against 1-propanol, 2-propanol, and acetone” value ([4]; 80% v/v solvent) was “extremely stable”. The “Residual activity rate (%)” value ([4]; Acetone 80% v/v) was 99%, the Relative activity ([5]; 0.1M Potassium phosphate, pH 6.0, activity at pH7 = 100) was 86 and the Relative activity ([5]; 0.1M Potassium phosphate, pH 6.5, activity at pH7 = 100) was 94. It also gave a Relative activity ([5]; 0.1M Potassium phosphate, pH 7.0, designated as 100) of 100, a Relative activity ([5]; 0.1M Potassium phosphate, pH 7.5, activity at pH7 = 100) of 88 and a Relative activity ([5]; 0.1M Potassium phosphate, pH 8.0, activity at pH7 = 100) of 67. For the same molecule, the Relative activity ([5]; 0.1M Sodium acetate, pH 4.0, activity at pH7 = 100) was 7, the Relative activity ([5]; 0.1M Sodium acetate, pH 4.5, activity at pH7 = 100) was 25 and the Relative activity ([5]; 0.1M Sodium acetate, pH 5.0, activity at pH7 = 100) was 57. It also gave a Relative activity ([5]; 0.1M Sodium acetate, pH 5.5, activity at pH7 = 100) of 71, a Relative activity ([5]; 0.1M Tris-hydrochloric acid, pH 7.5, activity at pH7 = 100) of 96 and a Relative activity ([5]; 0.1M Tris-hydrochloric acid, pH 8.0, activity at pH7 = 100) of 95. For the same molecule, the Relative activity ([5]; 0.1M Tris-hydrochloric acid, pH 8.5, activity at pH7 = 100) was 85 and the Relative activity ([5]; 0.1M Tris-hydrochloric acid, pH 9.0, activity at pH7 = 100) was 67.
